Experimental data reported in PMC11950852, “Diversity Scale of Library Matters: Impact of mRNA Library Diversity Scales on the Discovery of Macrocyclic Peptides Targeting a Protein by the RaPID System” (ACS Central Science, 2025).
Bridges are numbered along the chain shown (N, C = ends). Where no end group is shown, it is not given here. [ ]: non-standard residue; d: D form.

T1: ectodomain of MET fused to Fc (UniProt P08581 25-932)
T1 chain: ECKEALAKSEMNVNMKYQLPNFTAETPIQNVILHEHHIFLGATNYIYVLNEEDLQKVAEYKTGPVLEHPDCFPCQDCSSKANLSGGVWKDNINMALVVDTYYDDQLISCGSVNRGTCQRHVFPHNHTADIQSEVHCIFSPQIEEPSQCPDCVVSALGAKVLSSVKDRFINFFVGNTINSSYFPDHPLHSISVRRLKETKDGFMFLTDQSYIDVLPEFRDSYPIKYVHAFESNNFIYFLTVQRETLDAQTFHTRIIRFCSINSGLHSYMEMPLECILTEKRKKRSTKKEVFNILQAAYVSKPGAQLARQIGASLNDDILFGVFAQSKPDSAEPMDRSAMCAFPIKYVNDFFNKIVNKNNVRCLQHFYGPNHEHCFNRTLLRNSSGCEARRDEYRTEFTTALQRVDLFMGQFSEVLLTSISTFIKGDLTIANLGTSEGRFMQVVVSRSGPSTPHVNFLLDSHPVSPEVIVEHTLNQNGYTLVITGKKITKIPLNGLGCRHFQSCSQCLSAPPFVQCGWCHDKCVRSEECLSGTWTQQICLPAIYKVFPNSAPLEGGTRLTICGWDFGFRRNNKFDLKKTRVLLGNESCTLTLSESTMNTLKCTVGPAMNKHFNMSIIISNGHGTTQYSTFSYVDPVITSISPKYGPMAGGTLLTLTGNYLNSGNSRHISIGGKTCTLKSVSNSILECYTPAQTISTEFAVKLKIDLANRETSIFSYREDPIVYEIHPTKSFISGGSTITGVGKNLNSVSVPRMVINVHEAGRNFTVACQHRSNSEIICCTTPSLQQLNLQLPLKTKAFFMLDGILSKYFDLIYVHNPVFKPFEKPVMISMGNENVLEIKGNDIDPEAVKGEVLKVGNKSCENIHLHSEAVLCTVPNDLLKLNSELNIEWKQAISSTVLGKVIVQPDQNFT

B1: 10–1 (peptide)
chain: {CH2CO}-YYSWSGSVSESVKWNSCG-NH2
modifications: thioether N-17
SMILES: CC(C)[C@@H]1NC(=O)[C@H](CO)NC(=O)CNC(=O)[C@H](CO)NC(=O)[C@H](Cc2c[nH]c3ccccc23)NC(=O)[C@H](CO)NC(=O)[C@H](Cc2ccc(O)cc2)NC(=O)[C@H](Cc2ccc(O)cc2)NC(=O)CSC[C@@H](C(=O)NCC(N)=O)NC(=O)[C@H](CO)NC(=O)[C@H](CC(N)=O)NC(=O)[C@H](Cc2c[nH]c3ccccc23)NC(=O)[C@H](CCCCN)NC(=O)[C@H](C(C)C)NC(=O)[C@H](CO)NC(=O)[C@H](CCC(=O)O)NC(=O)[C@H](CO)NC1=O
B2: 12–1 (peptide)
chain: {CH2CO}-YISWFAYASKDWFVRPCG-NH2
modifications: thioether N-17
SMILES: CC[C@H](C)[C@@H]1NC(=O)[C@H](Cc2ccc(O)cc2)NC(=O)CSC[C@@H](C(=O)NCC(N)=O)NC(=O)[C@@H]2CCCN2C(=O)[C@H](CCCNC(=N)N)NC(=O)[C@H](C(C)C)NC(=O)[C@H](Cc2ccccc2)NC(=O)[C@H](Cc2c[nH]c3ccccc23)NC(=O)[C@H](CC(=O)O)NC(=O)[C@H](CCCCN)NC(=O)[C@H](CO)NC(=O)[C@H](C)NC(=O)[C@H](Cc2ccc(O)cc2)NC(=O)[C@H](C)NC(=O)[C@H](Cc2ccccc2)NC(=O)[C@H](Cc2c[nH]c3ccccc23)NC(=O)[C@H](CO)NC1=O
B3: 14–3 (peptide)
chain: {CH2CO}-YLSWSEFDSKNWSLAYCG-NH2
modifications: thioether N-17
SMILES: CC(C)C[C@@H]1NC(=O)[C@H](CO)NC(=O)[C@H](Cc2c[nH]c3ccccc23)NC(=O)[C@H](CC(N)=O)NC(=O)[C@H](CCCCN)NC(=O)[C@H](CO)NC(=O)[C@H](CC(=O)O)NC(=O)[C@H](Cc2ccccc2)NC(=O)[C@H](CCC(=O)O)NC(=O)[C@H](CO)NC(=O)[C@H](Cc2c[nH]c3ccccc23)NC(=O)[C@H](CO)NC(=O)[C@H](CC(C)C)NC(=O)[C@H](Cc2ccc(O)cc2)NC(=O)CSC[C@@H](C(=O)NCC(N)=O)NC(=O)[C@H](Cc2ccc(O)cc2)NC(=O)[C@H](C)NC1=O
B4: aML5 (peptide)
peptide: {CH2CO}-YISWNEFNSPNWRFITCG-NH2
modifications: thioether N-17
SMILES: CC[C@H](C)[C@@H]1NC(=O)[C@H](Cc2ccc(O)cc2)NC(=O)CSC[C@@H](C(=O)NCC(N)=O)NC(=O)[C@H]([C@@H](C)O)NC(=O)[C@H]([C@@H](C)CC)NC(=O)[C@H](Cc2ccccc2)NC(=O)[C@H](CCCNC(=N)N)NC(=O)[C@H](Cc2c[nH]c3ccccc23)NC(=O)[C@H](CC(N)=O)NC(=O)[C@@H]2CCCN2C(=O)[C@H](CO)NC(=O)[C@H](CC(N)=O)NC(=O)[C@H](Cc2ccccc2)NC(=O)[C@H](CCC(=O)O)NC(=O)[C@H](CC(N)=O)NC(=O)[C@H](Cc2c[nH]c3ccccc23)NC(=O)[C@H](CO)NC1=O
notes: Benchmark macrocycle from an earlier RaPID selection; measured again here; also called 17-mer aML5
B5: 14–4 (peptide)
chain: {CH2CO}-YYSWTGRDFDAVKWNKCG-NH2
modifications: thioether N-17
SMILES: CC(C)[C@@H]1NC(=O)[C@H](C)NC(=O)[C@H](CC(=O)O)NC(=O)[C@H](Cc2ccccc2)NC(=O)[C@H](CC(=O)O)NC(=O)[C@H](CCCNC(=N)N)NC(=O)CNC(=O)[C@H]([C@@H](C)O)NC(=O)[C@H](Cc2c[nH]c3ccccc23)NC(=O)[C@H](CO)NC(=O)[C@H](Cc2ccc(O)cc2)NC(=O)[C@H](Cc2ccc(O)cc2)NC(=O)CSC[C@@H](C(=O)NCC(N)=O)NC(=O)[C@H](CCCCN)NC(=O)[C@H](CC(N)=O)NC(=O)[C@H](Cc2c[nH]c3ccccc23)NC(=O)[C@H](CCCCN)NC1=O
B6: 12–5 (peptide)
chain: {CH2CO}-YLVWHEYDSKKWYFSLCG-NH2
modifications: thioether N-17
SMILES: CC(C)C[C@@H]1NC(=O)[C@H](CO)NC(=O)[C@H](Cc2ccccc2)NC(=O)[C@H](Cc2ccc(O)cc2)NC(=O)[C@H](Cc2c[nH]c3ccccc23)NC(=O)[C@H](CCCCN)NC(=O)[C@H](CCCCN)NC(=O)[C@H](CO)NC(=O)[C@H](CC(=O)O)NC(=O)[C@H](Cc2ccc(O)cc2)NC(=O)[C@H](CCC(=O)O)NC(=O)[C@H](Cc2c[nH]cn2)NC(=O)[C@H](Cc2c[nH]c3ccccc23)NC(=O)[C@H](C(C)C)NC(=O)[C@H](CC(C)C)NC(=O)[C@H](Cc2ccc(O)cc2)NC(=O)CSC[C@@H](C(=O)NCC(N)=O)NC1=O
B7: 14–6 (peptide)
chain: {CH2CO}-YIEWYVYDSKSWVYVRCG-NH2
modifications: thioether N-17
SMILES: CC[C@H](C)[C@@H]1NC(=O)[C@H](Cc2ccc(O)cc2)NC(=O)CSC[C@@H](C(=O)NCC(N)=O)NC(=O)[C@H](CCCNC(=N)N)NC(=O)[C@H](C(C)C)NC(=O)[C@H](Cc2ccc(O)cc2)NC(=O)[C@H](C(C)C)NC(=O)[C@H](Cc2c[nH]c3ccccc23)NC(=O)[C@H](CO)NC(=O)[C@H](CCCCN)NC(=O)[C@H](CO)NC(=O)[C@H](CC(=O)O)NC(=O)[C@H](Cc2ccc(O)cc2)NC(=O)[C@H](C(C)C)NC(=O)[C@H](Cc2ccc(O)cc2)NC(=O)[C@H](Cc2c[nH]c3ccccc23)NC(=O)[C@H](CCC(=O)O)NC1=O
B8: 14–2 (peptide)
chain: {CH2CO}-YYSWSGKDVDSVIWNNCG-NH2
modifications: thioether N-17
SMILES: CC[C@H](C)[C@@H]1NC(=O)[C@H](C(C)C)NC(=O)[C@H](CO)NC(=O)[C@H](CC(=O)O)NC(=O)[C@H](C(C)C)NC(=O)[C@H](CC(=O)O)NC(=O)[C@H](CCCCN)NC(=O)CNC(=O)[C@H](CO)NC(=O)[C@H](Cc2c[nH]c3ccccc23)NC(=O)[C@H](CO)NC(=O)[C@H](Cc2ccc(O)cc2)NC(=O)[C@H](Cc2ccc(O)cc2)NC(=O)CSC[C@@H](C(=O)NCC(N)=O)NC(=O)[C@H](CC(N)=O)NC(=O)[C@H](CC(N)=O)NC(=O)[C@H](Cc2c[nH]c3ccccc23)NC1=O
B9: 14–5 (peptide)
chain: {CH2CO}-YLSWKYYDSSDWVILSCG-NH2
modifications: thioether N-17
SMILES: CC[C@H](C)[C@@H]1NC(=O)[C@H](C(C)C)NC(=O)[C@H](Cc2c[nH]c3ccccc23)NC(=O)[C@H](CC(=O)O)NC(=O)[C@H](CO)NC(=O)[C@H](CO)NC(=O)[C@H](CC(=O)O)NC(=O)[C@H](Cc2ccc(O)cc2)NC(=O)[C@H](Cc2ccc(O)cc2)NC(=O)[C@H](CCCCN)NC(=O)[C@H](Cc2c[nH]c3ccccc23)NC(=O)[C@H](CO)NC(=O)[C@H](CC(C)C)NC(=O)[C@H](Cc2ccc(O)cc2)NC(=O)CSC[C@@H](C(=O)NCC(N)=O)NC(=O)[C@H](CO)NC(=O)[C@H](CC(C)C)NC1=O

How the values were obtained:
[1] = biological target: T2, ectodomain of MET fused to Fc (UniProt P08581 25-932); test: SPR; fitted by a 1:1 binding model; who was immobilised and the conditions are in the Supporting Information (not shown); conditions: both partners purified
T2 construct: MET (hepatocyte growth factor receptor), a receptor tyrosine kinase; also called MET-Fc; Fc-tagged MET

[2] = biological target: T1, ectodomain of MET fused to Fc; test: SPR
[3] = biological target: T1, ectodomain of MET fused to Fc; test: SPR

Row | Binder | koff [1] | koff [2] | Kd [3] | Kd [1]
1 | B1 | ~0.01 s⁻¹ | 0.00878 s⁻¹ |  | 
2 | B2 | 0.00254 s⁻¹ |  | 32 nM | 
3 | B3 |  | 0.00297 s⁻¹ | 35 nM | 
4 | {CH2CO}-YWVYGFGKLNNDWRAFCG (thioether N-17 (inferred)) [14–1] |  | 0.000739 s⁻¹ | 2.87 nM | 
5 | B4 |  | 0.00606 s⁻¹ |  | 11.2 nM
6 | B5 |  | 0.00198 s⁻¹ | 2.49 nM | 
7 | B6 |  | 0.002 s⁻¹ | 15.4 nM | 
8 | B7 |  | 0.00564 s⁻¹ | 31.5 nM | 
9 | B8 |  | 0.00182 s⁻¹ | 3.93 nM | 
10 | {CH2CO}-YNCLWVECKIVLPNGRCG (disulfide 8-17; thioether N-3) [12–4] | 0.00721 s⁻¹ |  | 15.8 nM | 
11 | B9 |  | 0.00836 s⁻¹ | 64.7 nM | 
12 | {CH2CO}-YFYYNWTNVAKWAKTLCG (thioether N-17 (inferred)) [6–2] | 0.0074 s⁻¹ |  | 102 nM | 
13 | {CH2CO}-[dY]RQFNRRTHEVWNLDCG (thioether N-16 (inferred)) [aMD4] |  | 0.00676 s⁻¹ |  | 3.7 nM
